The source of these data is patent US20230190642A1, “GROWTH FACTOR OTIC FORMULATIONS” (OTONOMY, INC., priority 2018, published 2023).

Test [1] concerns Spiral ganglion neurons (SGNs). As to the kind of experiment: Survival of dissociated spiral ganglion neurons (Example C). To be noted: 1 µM; compared to vehicle-only control, 0.01% DMSO; FIG. 6C. Type of test: cell-based, rat. The method, then:
Spiral ganglion neurons (SGNs) were harvested from P1-P3 rates, dissociated, and cultured in 96-well plates. The SGNs were treated with neurotrophins and/or antibodies at various concentrations. After about 24 hours, media was exchanged to serum-free media and the neurotrophins and/or antibodies were replenished. Cells were cultured for an additional 48-72 hours before being fixed using 4% paraformaldehyde (PFA) and stained using 4′,6-diamidino-2-phenylindole (DAPI). […] Surviving neurons were identified as cells with intact soma and at least one neurite.

For another test, the system named is tinnitus. As to conditions: administered by IV; cited from earlier work.
Test [2] deals with Méniére’s disease symptoms. To be noted: infusion into the scala tympani; cited from earlier work.
The test system of a further test is SGNs. As to the kind of experiment: SGN complexity, dissociated SGNs (Example D). In kind it is cell-based, rat. To be noted: compared to IgG-treated control, FIG. 7D. The text has this: SGNs were immunostained, imaged, and batch analyzed with PerkinElmer Harmony 4.6 software. Changes in the complexities of SGNs upon treatment with various agents were examined. […] All of the images in a single well were stitched together and analyzed. SGN somas are shown in the upper right panel and SGN neurites are shown in the lower left panel. As shown in the lower right panel, each neurite tree is assigned to a single cell for analysis. Depending on the stitching, occasionally neurites will not meet the criteria due to gaps that exceed a user-defined threshold.

A further test deals with noise exposed adult rats. The test is described as follows: Noise-induced hearing loss / synaptopathy in rats (Example A1). In kind it is in vivo, rat. The method, then:
Poloxamer 407 gel at 16% was prepared using the cold method. In brief, a 16% w/w stock solution of poloxamer 407 was prepared by slowly adding it to a cold buffer solution (10 mM PBS, pH 7.4). Sterilization was achieved by filtration. Human recombinant BDNF was suspended with an appropriate amount of poloxamer 407 solution to reach a range of concentration of 0.05 to 5.0 mg/ml BDNF.
Male rats (Charles River) approximately 10-11 months of age served as subjects (N = 6 per group). Prior to any procedures, animals were anesthetized using a combination of xylazine (10 mg/kg) and ketamine (90 mg/kg) for up to one hour via the intraperitoneal route. If needed, an intraoperative booster was administered intraperitoneally representing one-tenth of the original dose. […]
Auditory Brainstem Response (ABR) assessment (wave 1) - During the procedure, additional anesthetic (xylazine and ketamine) was administered if needed to maintain the depth of anesthesia sufficient to insure immobilization and relaxation. ABRs were recorded in an electrically and acoustically shielded chamber, one ear at a time. […] Acoustic calibration was performed with TDT software (SigCal) and thresholds were expressed as dB SPL in conditions identical to that of threshold recordings in animals. […] Wave 1 was quantified by averaging the wave 1 amplitude from intensities ranging between 60-80 dB SPL. […]

Test [3] relates to noise-induced cochlear synaptopathy. As to the kind of experiment: Noise-induced cochlear synaptopathy in rats (Example G). In kind it is in vivo, rat. The method, then:
Animals: Male Sprague-Dawley rats (5-6 months of age) were used for efficacy studies and females (2-3 months) were used for pharmacokinetic studies.
Formulations: Human recombinant BDNF was suspended in the thermoreversible polymer Poloxamer 407 (16%) to reach a range of BDNF concentrations.
Intratympanic (IT) injection: Formulations were administered under anesthesia as a single IT injection (20 µl through the tympanic membrane into the middle ear, targeting the round window membrane (RWM).
Noise-induced cochlear synaptopathy: Rats (n= 44 per treatment group) received a single acoustic trauma (105 dB SPL, 8-16 kHz, 1h) under anesthesia. 24 hours later (Day 1) animals received a single bilateral IT injection of the treatment regimens. Auditory function (ABR and ABR wave 1 amplitude) was monitored at day 1 and then every 7 days for 28 days. At termination (Day 28), cochleae were collected and assessed for evidence of cochlear synaptopathy (IHC synaptic puncta counts).
Immunohistochemistry: Dissected cochleae were immunostained with antibodies against presynaptic (CtBP2) and postsynaptic (GluR2) proteins and MyosinVIIa to label hair cells. Cochleae were then frequency mapped and high-magnification images were obtained with a Zeiss LSM-880 confocal microscope and imaged at an interval of 0.35 µm.
Intratympanic BDNF improves Auditory Brainstem Response (ABR) thresholds and wave I amplitudes in adult rats. The Auditory Brainstem Response (ABR) is an objective test that measures hearing sensitivity and can identify abnormalities in the peripheral auditory system and the auditory pathway up through the brainstem. Adult male rats were bilaterally exposed to noise followed by an intratympanic injection of 0.05 mg/ml BDNF in P407 24 hours after noise exposure. ABR recordings were obtained at days 1, 7, 14, and 28.

As for `OCCN(CCO)c1ccc(C(c2ccc(Cl)cc2)c2ccc(N(CCO)CCO)cc2)cc1` [LM22b10], the “Survival of SGNs” value in test [1] is on record as “not improved”.

With `CCN(CC)CC(=O)Nc1c(C)cccc1C` [Lidocaine], the “sufferers in whom the noise associated with tinnitus is reduced or eliminated” value in the test with tinnitus is 60-80%.

`Cc1ccccc1C(=O)Nc1ccc(C(=O)N2CCCC(N(C)C)c3ccccc32)cc1` (stereo not drawn) [OPC-31260]: the “Méniére’s disease symptoms” value in test [2] was “marked reduction”.

B1: neurotrophin-3 (protein, UniProt P20783 139-257, looked up)
Neurotrophin-3: YAEHKSHRGEYSVCDSESLWVTDKSSAIDIRGHQVTVLGEIKTGNSPVKQYFYETRCKEARPVKNGCRGIDDKHWNSQCKTSQTYVRALTSENNKLVGWRWIRIDTSCVCALSRKIGRT
notes: neurotrophin; Trk agonist on spiral ganglion neurons
B1: the “total neurite length, total number of extremities, segments, and nodes per cell (differences)” value with SGNs is “not statistically significant”.

B2: brain-derived neurotrophic factor (protein, UniProt P23560 19-247, looked up)
Neurotrophic factor BDNF …: APMKEANIRGQGGLAYPGVRTHGTLESVNGPKAGSRGLTSLADTFEHVIEELLDEDQKVRPNEENNKDADLYTSRVMLSSQVPLEPPLLFLLEEYKNYLDAANMSMRVRRHSDPARRGELSVCDSISEWVTAADKKTAVDMSGGTVTVLEKVPVSKGQLKQYFYETKCNPMGYTKEGCRGIDKRHWNSQCRTTQSYVRALTMDSKKRIGWRFIRIDTSCVCTLTIKRGR
notes: Human recombinant BDNF; neurotrophin, Trk agonist on spiral ganglion neurons
Regarding B2, the “total neurite length, total number of extremities, segments, and nodes per cell (differences)” value with SGNs is “not statistically significant”. Further, the “hearing function (wave I amplitude)” value in the test on noise exposed adult rats (single intratympanic 0.005% BDNF in Poloxamer 407 24 hrs after noise, compared to vehicle, FIG. 3A) was “improved hearing function”. Moreover, the “number of ribbon synapses per inner hair cell” value with noise exposed adult rats (single intratympanic 0.005% BDNF in Poloxamer 407, Day 28, compared to vehicle, FIG. 3B) is given as “increased”. The “ABR wave I amplitudes” value in test [3] (adult male rats, BDNF or vehicle treatment following noise exposure, across many frequencies, FIG. 12C) is “Significant improvements”. The “recovery of initial ABR threshold shifts” value in test [3] (adult male rats, intratympanic 0.05 mg/ml BDNF in P407 24 hours after noise exposure, ABR at days 1, 7, 14, 28, vs P407 vehicle, FIG. 12A) is “more rapid recovery”. Also, the “levels of hearing loss” value in test [3] (adult male rats, intratympanic 0.05 mg/ml BDNF in P407 24 hours after noise exposure, vs P407 vehicle) is “reduced”. Besides, in test [3] (adult rats after noise damage, each frequency region throughout the cochlea, FIG. 13C), the “synaptic puncta (co-expression of CtBp2 and GluR2) per inner hair cell” value is listed as “increased”. Besides, the cochlear synaptopathy entry in test [3] (adult rats, intratympanic BDNF) is on record as “repairs”.
